The values that follow come from publication PMC10784507, “Disordered-to-ordered transitions in assembly factors allow the complex II catalytic subunit to switch binding partners” (Nature Communications, 2024).

The target of data set [1] is T1, holo-SDHA-SDHAF2 complex (preformed from purified proteins) (human, UniProt P31040 43-664; Q9NX18 37-166, covalently attached FAD (residue not stated)).
T1 construct: human SDHAF2, mature, residues 37-166; also called holo-SDHA-AF2; SDHA-AF2 complex; source: E. coli BL21(DE3) proteins, purified; not shown: His6, N-terminal, kept; His6, N-terminal, cleaved
The data set can be described thus: pull-down; preformed holo-SDHA-SDHAF2 (2 µM, His6 on SDHA) incubated with SDHAF4 or its variants, with or without 5 mM fumarate, 30 min 25 °C, then held on Ni-NTA agarose; SDS-PAGE with Coomassie, western blot for the truncated variants. The settings on record: both partners purified. Background: Immunoblotting shows a protein as a band on a membrane.

Data set [2] addresses T2, holo-SDHA with covalently attached FAD (human, UniProt P31040 43-664, covalently attached FAD (residue not stated)).
T2 construct: also called SDHA with covalent FAD; His6-SDHA; source: E. coli BL21(DE3), purified; covalent FAD formed in vitro (apo-SDHA with SDHAF2, FAD and fumarate) or by co-expression with SDHAF2; not shown: His6, N-terminal, kept
The description is as above. The settings on record: both partners purified.

A further data set concerns the target T3, His6-apo-SDHA (human, UniProt P31040 43-664).
T3 construct: the same molecule with 75 µM FAD added is the form with non-covalent FAD; also called His-SDHA; not shown: His6, N-terminal, kept
The data set can be described thus: pull-down; Ni-NTA pull-down, pairwise; His6-apo-SDHA (2.6 µM) with SDHAF2 (6.4 µM) or FLAG-SDHAF4 (8 µM), no FAD; 40 mM HEPES pH 7.5, 0.5 mM DTT, 30 min 25 °C; SDS-PAGE, Coomassie. The settings on record: both partners purified.

Data set [3] concerns the molecule itself. Briefly: native gel or EMSA; purified His6-SDHAF4^30-108, dilution series from 5 mg/ml, on 10% native and 10% SDS gels. Background: A gel shift assay detects complexes by their altered migration in electrophoresis.
Data set [4] concerns the target T4, Human SDHA-AF2 complex (co-expressed, purified) (human, UniProt P31040 43-664; Q9NX18 37-166, covalently attached FAD (residue not stated)).
T4 construct: human SDHAF2, mature, residues 37-166; also called holo-SDHA-SDHAF2 complex; holo-SDHA-AF2; not shown: His6, N-terminal, kept
Briefly: crystal structure; SDHA-AF2-AF4: holo-SDHA-SDHAF2 with His6-SDHAF4, 5 h at 4 °C, SEC; crystals in 0.2 M ammonium citrate tribasic pH 8.0, 20% PEG 3,350, 1 mM DTT, 25 °C. The note with it: both partners purified.

Data set [5] addresses T2, holo-SDHA with covalently attached FAD. The description is as above. The settings on record: both partners purified.

T1 sequence (P31040 43-664, one chain of several): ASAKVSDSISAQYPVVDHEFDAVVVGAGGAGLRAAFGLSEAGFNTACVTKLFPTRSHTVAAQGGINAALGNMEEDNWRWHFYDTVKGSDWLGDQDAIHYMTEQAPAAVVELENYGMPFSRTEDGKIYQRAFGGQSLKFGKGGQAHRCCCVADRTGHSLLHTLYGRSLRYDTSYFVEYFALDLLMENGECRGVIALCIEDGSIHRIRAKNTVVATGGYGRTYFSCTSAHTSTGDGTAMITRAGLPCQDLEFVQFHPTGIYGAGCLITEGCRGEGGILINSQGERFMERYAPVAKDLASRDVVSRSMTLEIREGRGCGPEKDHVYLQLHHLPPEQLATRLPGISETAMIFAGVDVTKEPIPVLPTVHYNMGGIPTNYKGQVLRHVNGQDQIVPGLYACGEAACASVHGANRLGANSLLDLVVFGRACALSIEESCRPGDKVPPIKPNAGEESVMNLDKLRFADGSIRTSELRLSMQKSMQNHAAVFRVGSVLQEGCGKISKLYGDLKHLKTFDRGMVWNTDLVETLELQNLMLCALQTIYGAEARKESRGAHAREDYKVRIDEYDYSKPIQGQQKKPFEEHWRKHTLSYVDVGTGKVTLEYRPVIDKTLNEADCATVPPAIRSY
T2 sequence (P31040 43-664): as the sequence (P31040 43-664, one chain of several) above
T4 sequence (P31040 43-664, one chain of several): as above
T3 sequence (P31040 43-664): as the sequence (P31040 43-664, one chain of several) above

B1: SDHAF4^ΔF108 (natural protein, human, UniProt Q5VUM1 30-108, looked up)
chain: LRKTSSSQGGKSELVKQSLKKPKLPEGRFDAPEDSHLEKEPLEKFPDDVNPVTKEKGGPRGPEPTRYGDWERKGRCID
notes: human SDHAF4, residues 30-108 without the C-terminal F108, made by modification of the pQT-SDHAF4 parent vector; The pQT vector adds a TEV-cleavable His tag; source: E. coli BL21(DE3), purified
Take B1: the binding result in data set [1] is given as “binds”.

B2: SDHAF2 (residues 37-166, His6 tag removed with TEV protease) (natural protein, human, UniProt Q9NX18 37-166, looked up)
chain: GDSPTDSQKDMIEIPLPPWQERTDESIETKRARLLYESRKRGMLENCILLSLFAKEHLQHMTEKQLNLYDRLINEPSNDWDIYYWATEAKPAPEIFENEVMALLRDFAKNKNKEQRLRAPDLEYLFEKPR
notes: human SDHAF2, mature, residues 37-166; source: E. coli BL21(DE3), purified; His6 tag removed with TEV protease; not shown: His6, N-terminal, cleaved
Regarding B2, the binding result (in data set [2]; with His6-apo-SDHA) was “binds” in each case.

B3: SDHAF4^D107A (natural protein, human, UniProt Q5VUM1 30-108, looked up)
chain: LRKTSSSQGGKSELVKQSLKKPKLPEGRFDAPEDSHLEKEPLEKFPDDVNPVTKEKGGPRGPEPTRYGDWERKGRCIAF
notes: human SDHAF4, residues 30-108, made by modification of the pQT-SDHAF4 parent vector; The pQT vector adds a TEV-cleavable His tag; source: E. coli BL21(DE3), purified
On to B3, for which the binding result in data set [1] was “binds”.

B4: His6-SDHAF4^30-108 (natural protein, human, UniProt Q5VUM1 30-108, looked up)
chain: LRKTSSSQGGKSELVKQSLKKPKLPEGRFDAPEDSHLEKEPLEKFPDDVNPVTKEKGGPRGPEPTRYGDWERKGRCIDF
notes: human SDHAF4, residues 30-108, in the pQT vector (pQT-SDHAF4); also called His-SDHAF4; purified SDHAF4; source: E. coli BL21(DE3), purified (Ni-NTA, SEC); not shown: His6, N-terminal, kept
B4: the binding result in data set [3], in data set [4] and in data set [5] was “binds” throughout.

B5: SDHAF4^D107N (natural protein, human, UniProt Q5VUM1 30-108, looked up)
chain: LRKTSSSQGGKSELVKQSLKKPKLPEGRFDAPEDSHLEKEPLEKFPDDVNPVTKEKGGPRGPEPTRYGDWERKGRCINF
notes: as for B3
Regarding B5, in data set [1], the binding result is reported as “binds”.

B6: SDHAF4^F108A (natural protein, human, UniProt Q5VUM1 30-108, looked up)
chain: LRKTSSSQGGKSELVKQSLKKPKLPEGRFDAPEDSHLEKEPLEKFPDDVNPVTKEKGGPRGPEPTRYGDWERKGRCIDA
notes: as for B3
For B6, the binding result in data set [1] is listed as “binds”.

B7: SDHAF4^D107T (natural protein)
chain: not shown
notes: as for B3
As to B7, in data set [1], the binding result was “binds”.

B8: SDHAF4^77-108 (domain or fragment)
chain: not shown
notes: human SDHAF4, residues 77-108; also called truncated FLAG-SDHAF4 variant
On to B8, for which the “percent of SDHAF2 displaced from the SDHA-AF2 complex” value (shortened to “percent of SDHAF2 displaced”) in data set [1] was around 50%.

B9: SDHAF4^56-108 (domain or fragment)
chain: not shown
notes: human SDHAF4, residues 56-108; also called truncated FLAG-SDHAF4 variant
For B9, the “percent of SDHAF2 displaced” value in data set [1] is around 50%.

B10: SDHAF4^67-108 (domain or fragment)
chain: not shown
notes: human SDHAF4, residues 67-108; also called truncated FLAG-SDHAF4 variant
In the case of B10, the “percent of SDHAF2 displaced” value in data set [1] is around 50%.

B11: FLAG-SDHAF4 (mature, residues 20-108) (natural protein, human, UniProt Q5VUM1 20-108, looked up)
chain: AARSPLLCHSLRKTSSSQGGKSELVKQSLKKPKLPEGRFDAPEDSHLEKEPLEKFPDDVNPVTKEKGGPRGPEPTRYGDWERKGRCIDF
notes: human SDHAF4, mature protein, residues 20-108, codon-optimised synthetic gene in pST50Trc3-FLAG; also called full-length SDHAF4; wild-type SDHAF4; source: E. coli BL21(DE3), purified (DEAE-Sepharose, filtration)
Turning to B11, the “percent of SDHAF2 displaced” value in data set [1] is around 80%.
